From the nanobody polyreactivity screen of Harvey et al. (2022)

Assay: yeast display, Sf9 membrane polyspecificity reagent, FACS + sequencing; frameworks hold sequencing errors
How it was run: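 A nanobody's polyreactivity label depends on the gate it was sorted from. Yeast display cells were stained with 10% biotinylated, detergent-solubilized Sf9 membrane reagent for 1 hour at 4 °C, enriched on streptavidin microbeads and sorted by FACS. The low and high (top ~1%) gates were set on anti-HA fluorescence for expression and streptavidin fluorescence for reagent binding.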

Sequence	polyreactivity (PSR sort gate)
QVQLVESGGGLVQAGGSLRLSCAASGIICWWNTMGWYRQAPGKERELVATITRGGSTYYADSVKGRFTISRDNAKNTVYLQMNSLKPEDTAVYYCNAVQYKYLAKSYDYWGQGTQVTVSS	low polyreactivity
QVQLVESGGGLVQAGGSLRLSCAASGLIFNLYAMGWYRQAPGKEREFVATITGIGGSTYYADSVKGRFTISRDNANNTVYLQMTSLKPEDTAVYYCAADAWFLPYNYWGQGTQVTVSS	low polyreactivity
QVQLVESAGGLVQAGGSLRLSCAASGYIFYFYAMGWYRQAPGKERELVAAITSVGSTKYADSVKGRFTISRDNAKNTVYLQMNSLKPEDTAVYYCAARSWSGYGLYNYWGHGTQVTVSS	high polyreactivity
QVQLVESGGGLVQAGGSLRLSCAASGRIFQQNGMGWYRQAPGKERELVAGINSGVGTNYADSVKGRFTISRDNAKNTVYLQRNSLKPEDTAVYYCAKSQPSYSGDRDYWGPGTQVTVSS	low polyreactivity
QVQLVESGGGLVQAGGSLRLSCAASGLTFYIYAMGWYRQAHGKERELVASISSSGGITYYADSVKGRFTISRDNAKNTVYLQMNSLKPEDTAVYYCAATYSHRRGDYWGQGTQVTVSS	high polyreactivity
QVQLVESGGGLVQAGGSLRLSCAASGGTFARNAMGWYRQAPGKERELVATITRRAGNTYYADSVKGRFTISRDNAKNTVYLEMNSLKREDTAVYYCAGVATWGFYPYLIPEVGNDYWGQGTQVTVSS	high polyreactivity
QVQLVESGGGLVQAGGSLRLSCAASGRVYAMGWYRQAPGKERELVAAISRNGGSTYYADSVKGRFTISRDNAKNNVYLQMNSLKPEDTAVYYCNKYSGYKGTDGGDYWGQGTQVTVSS	low polyreactivity
QVHHVESVGGLVQAGGILRLSSAASGRTFDRYAMGWYRQEPGKERELVAAISSGGSTYYADSVKGRFTISRDNAKNTVYLQMNSLKPEDTADYYCNAGKTFDFRDGVGYDHWGQGTQVTVSS	low polyreactivity
QVQLVESGGGLVQAGGSLRLSCAASGRTFYRNAMGWYRQAPGKERELVAAISSDDSTNYADSVKGRFTISRDNAKNTVYLQMNSQKPEDTAVYYCNADYYYGYEYDYWGQGTQVTVSS	low polyreactivity
QVQLVESGGGLVQAGGSIRLSCAASGRIFWGNGMGWYRQAPGKEREFVAAISKSGGSTYYPDSVKGRFTISRDNAKNTVYLQMNSLKPEDTAVYYCAARAPYSYSGYGYWGQGTQVTVSS	high polyreactivity
QVQLVESGGGLVQAGGRLRLSCAASGIFGYNALGWYRQAPGKERELVAAITSSGTSTYYADSVKGRFTISRDNAKNTVYLQMNSLKPEDTAVYYCAALHSGTWTGYGYWGQGTQVTVSS	low polyreactivity
QVQLVESGGGLVQAGGTLRISCAASGSIFYLYAMGWYRQAPGKERELVAGIRYRGGSTYYADSVKGRFTISRDNAKNTVYLQMNSLKPEDTAVYYCAAEYGDGRYWSYDYWGQGTQVTVSS	high polyreactivity
QVQLGESGGGLVQAGGSLRLSCAASGRIFSAYAMGWSRQEPGKERELVAAITRSGGSTYYADSVKGRFTISRDNAKNTVYLQMNSLKPEDTAVYYCAAGYFVSDAWSWYHWVEHGYWGQGTQVTVSS	high polyreactivity
QVQLVESGGGLVQAGGSLRLSCAASGRIFGFNARGWYRQAPGKERELVAGITDSSGRTNYADSVKGRFTISRDNAKNTVYLQMNSLKPEDTAVYYCARRRFGQYTERYYWGQGTQVTVSS	low polyreactivity
QVQLVESGGGVVQAGGSLRLSCAASGSTFRYNARGWYRQAPGKEREFVAAITTSGVRTYYADSVKGRFTISRDNAKNTVYLQMNSLKPEDTAVYYCARRTPGTRWNYDYWGQGTQVTVSS	high polyreactivity
QVHLVESGGGLVQAGGSLRLSCASSASIINVYAMGWYRQAPGKEREFVADINYSGGSTYADSVKGRFTISRDNAKNTVYLQMYSVKPEDTAVYYCADVYGYLYYELYYWGQGTQVTVSS	low polyreactivity
QVQLVESGGGLVQAGGSLRLSCAASGFTFGENAMGWYRQAPGKERELVATISDSGDSTYYADSVKGRFTISRDNAKNTVYLQMNSLKPEDTAVYYCAAPLPHRGYDEGYWGQGTQVTVSS	low polyreactivity
